Assay results published in publication PMC5647379.
One block for each substance: values may come before it.

Assays:
[1] = biological target: dansylated calmodulin (D-CaM, 5-(dimethylamino)naphtalene-1-sulfonyl-calmodulin) (rat) (UniProt P0DP29); assay: other fluorescence titration; D-CaM 12.5 nM in the cuvette, increasing concentrations of GST-fusion protein; no Ca2+ (EGTA 10 mM); Tris-HCl 25 mM pH 7.4, KCl 120 mM, NaCl 5 mM, MgCl2 2 mM; 25 °C; apparent affinity (EC50 of a Hill fit to the fluorescence enhancement)
[2] = biological target: dansylated calmodulin (D-CaM, 5-(dimethylamino)naphtalene-1-sulfonyl-calmodulin) (rat) (UniProt P0DP29); assay: dansyl-CaM fluorescence time course; D-CaM 12.5 nM in a stirred cuvette, emission at 500 nm against time; wt protein (400 nM) added, or one mutant (400 nM) and two minutes later the other mutant (400 nM); also 50 and 100 nM; Fluorescence buffer with or without Ca2+; 25 °C and 37 °C
[3] = biological target: Fluorescent dansylated CaM (D-CaM, 5-(dimethylamino)naphtalene-1-sulfonyl-calmodulin) (rat) (UniProt P0DP29); assay: other fluorescence titration; increasing GST-fusion protein added to D-CaM (12.5 nM) in the cuvette; dansyl fluorescence enhancement, Hill fit, apparent affinity (EC50); 25 °C; Fluorescence buffer with 9.63 mM Ca2+ added (3.9 µM free Ca2+)
[4] = biological target: Fluorescent dansylated CaM (D-CaM, 5-(dimethylamino)naphtalene-1-sulfonyl-calmodulin) (rat) (UniProt P0DP29); assay: other fluorescence titration; increasing GST-fusion protein added to D-CaM (12.5 nM) in the cuvette; dansyl fluorescence enhancement, Hill fit, apparent affinity (EC50); 25 °C; Tris-HCl 25 mM pH 7.4, KCl 120 mM, NaCl 5 mM, MgCl2 2 mM, EGTA 10 mM; without Ca2+
[5] = biological target: dansylated calmodulin (D-CaM, 5-(dimethylamino)naphtalene-1-sulfonyl-calmodulin) (rat) (UniProt P0DP29); assay: other fluorescence titration; as a2 but with an excess of free Ca2+ (3.9 µM; 9.63 mM Ca2+ added to the Fluorescence buffer); apparent affinity (EC50)
[6] = biological target: dansylated calmodulin (D-CaM, 5-(dimethylamino)naphtalene-1-sulfonyl-calmodulin) (rat) (UniProt P0DP29); assay: other fluorescence titration; D-CaM 12.5 nM in the cuvette, increasing concentrations of GST-fusion protein; no Ca2+ (EGTA 10 mM); Tris-HCl 25 mM pH 7.4, KCl 120 mM, NaCl 5 mM, MgCl2 2 mM; 25 °C; apparent affinity (EC50 of a Hill fit to the fluorescence enhancement); remark: listed apart in the source
[7] = biological target: mTurquoise2-Kv7.2-ABCD (residues 310-653) (human); assay: FRET or BRET; equimolar mixtures (500 nM or 2.5 µM each) of purified CFP-ABCD/CaM (donor) and YFP-ABCD/CaM (acceptor) complexes; FRET index followed over time; KCl 120 mM, Hepes 50 mM, NaCl 5 mM, EGTA 5 mM, with or without Ca2+

Substance: ABCD# (equimolar mixture of GST-ABCD-S511D and GST-ABCD-A343D of Kv7.2)
EC50 [3]: 0.0785 µM

Substance: ABCD#-L609R (equal mixture of helix A and helix B mutants of ABCD carrying L609R)
EC50 [1]: 0.12 µM

Substance: mCitrine-Kv7.2-ABCD (residues 310-653) (domain or fragment)
time to reach half maximal FRET (2.5 µM donor and acceptor) [7]: 6.9 min | time to reach the half maximal FRET index (500 nM mixture) [7]: 12.2 min

Now from value to substance:

EC50 [1]: 0.0455 µM | half-time in the trans-binding assay (400 nM) [2]: 6.5 min | time to reach the half-maximal D-CaM fluorescence signal (400 nM, 25 °C) [2]: 12 min | time to reach the half-maximal D-CaM fluorescence signal (400 nM, 37 °C) [2]: 9.2 min
Substance: ABCD# (equimolar mixture of ABCD-A343D and ABCD-S511D)

EC50 [3]: 0.173 µM | EC50 [4]: 0.119 µM
Substance: ABCD#-L609R (equimolar mixture of GST-ABCD-S511D-L609R and GST-ABCD-A343D-L609R of Kv7.2)

EC50 [5]: 0.0151 µM | EC50 [6]: 0.0092 µM | EC50 [1]: 0.0091 µM
Substance: GST-Kv7.2 ABCD (helices ABCD fused to GST) (domain or fragment)
